Test results published in patent US20240239899A1 (Memorial Sloan Kettering, published 2024).

What was measured:
[1] = biological target: CCCK phosphopeptide/HLA-A2 complex on T2 cells (human, phosphoserine at position 7); assay: flow cytometry, T2 cells pulsed with 20 µg/ml peptide (FIG. 11)
[2] = biological target: b-catenin phosphopeptide/HLA-A2 complex on T2 cells (human, phosphoserine at position 4); assay: as above
[3] = biological target: T1, HLA-A2 molecule on T2 cells (T2 cells alone, not pulsed) (human); assay: flow cytometry, titration of 6B1 on unpulsed T2 cells (FIG. 1C)
T1 construct: Stands both for the target 'T2 cells alone' and for the partner of the pulsed peptides in the T2 stabilization assays; also called HLA-A02

[4] = biological target: T1, HLA-A2 molecule on T2 cells (T2 cells …); assay: flow cytometry, unpulsed T2 cells, secondary anti-His-tag mAb

| Binder | binding result [1] | binding result [2] | binding result [3] | binding result [4] |
| --- | --- | --- | --- | --- |
| 6B1 mAb (TCR mimic, full length human IgG1) (antibody, V domains shown, Full length human IgG1; Conjugated to APC for direct staining of tumor cell lines; also called mAb 6B1; Mab 6B1) VH: EVQLLESGGGLVQPGGSLRLSCAASGFTFSSYAMSWVRQAPGKGLEWVSEISGGGGYTDYADSVKGRFTISRDNSKNTLYLQMNSLRAEDTAVYYCARQMYYYYGMDVWGQVTTVTVSS VL: EIVLTQSPGTLSLSPGERATLSCRASQSVSANYLAWYQQKPGQAPRLLIYGASSRATGIPDRFSGSGSGTDFTLTISRLEPEDFAVYYCQQSYQRPLTFGQGTKVEIK | no binding | no binding | no binding (tested: 10 µg/ml to 0.1 µg/ml) |  |
| 6B1 BisAb h2+2 (L2K scFv inserted into the upper hinge of 6B1 IgG1) (bispecific antibody) heavy: not shown light: EIVLTQSPGTLSLSPGERATLSCRASQSVSANYLAWYQQKPGQAPRLLIYGASSRATGIPDRFSGSGSGTDFTLTISRLEPEDFAVYYCQQSYQRPLTFGQGTKVEIKRTVAAPSVFIFPPSDEQLKSGTASVVCLLNNFYPREAKVQWKVDNALQSGNSQESVTEQDSKDSTYSLSSTLTLSKADYEKHKVYACEVTHQGLSSPVTKSFNRGEC |  |  |  | no binding (tested: 1 or 0.1 µg/ml) |
| 6B1 BisAb C2+2 (L2K scFv fused to the C-terminus of the 6B1 IgG1 heavy chain) (bispecific antibody, copies: 2 + 2) heavy: not shown light: EIVLTQSPGTLSLSPGERATLSCRASQSVSANYLAWYQQKPGQAPRLLIYGASSRATGIPDRFSGSGSGTDFTLTISRLEPEDFAVYYCQQSYQRPLTFGQGTKVEIKRTVAAPSVFIFPPSDEQLKSGTASVVCLLNNFYPREAKVQWKVDNALQSGNSQESVTEQDSKDSTYSLSSTLTLSKADYEKHKVYACEVTHQGLSSPVTKSFNRGEC |  |  |  | no binding (tested: 1 or 0.1 µg/ml) |
